One test relates to Par6-PKCι-Cdc42 complex. Kind of test: In vitro activity of activated Par complex (data not shown). The format is biochemical.
Test [1] deals with T1, PKCιKD-2P (primed human PKC-iota kinase domain) (Homo sapiens, UniProt P41743, C595S).
T1 construct: encoding residues 248–596 (GenBank: NM_002740.5); GST (followed by a 3C protease site) (N, cleaved yes); made in house; host or cells: Hi5 insect cells, baculovirus, co-infected with a PDK-1 virus
T1 sequence (P41743 248-596 C595S): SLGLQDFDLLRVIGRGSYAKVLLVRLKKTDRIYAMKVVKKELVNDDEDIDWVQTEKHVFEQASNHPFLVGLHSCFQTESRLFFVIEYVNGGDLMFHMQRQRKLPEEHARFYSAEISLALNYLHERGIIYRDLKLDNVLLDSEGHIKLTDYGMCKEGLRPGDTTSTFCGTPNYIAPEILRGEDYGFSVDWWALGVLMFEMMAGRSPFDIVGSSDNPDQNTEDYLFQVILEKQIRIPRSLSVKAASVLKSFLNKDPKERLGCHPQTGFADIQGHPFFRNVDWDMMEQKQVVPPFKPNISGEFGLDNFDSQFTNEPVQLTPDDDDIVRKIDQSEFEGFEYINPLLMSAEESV
Kind of test: In vitro kinase assay (ADP Quest), inhibition of phosphorylation of a model substrate peptide. The format is biochemical. Conditions: Figures 1C, S5C. The procedure: The ADP Quest kit (DiscoveRx) was used to determine the kcat app and KM app values for ATP against the PKCιKD-1P and PKCιKD-2P using a series of synthetic peptide substrates as described by [Kjaer et al. (2013)]. The reactions were measured every 2 min for 30 min in a 384-well plate using a Safire^2 plate reader (Tecan). The kinetic constants were determined by fitting the data to the Michaelis-Menten equation. Data are represented as mean ± SEM. Fluorescence anisotropy assays were performed to determine the KD for each peptide labeled with a fluorescein tag following standard protocols using a Safire^2 plate reader (Tecan). The anisotropy values were normalized and the KD was determined using non-linear regression. […]
The ADP Quest kit (DiscoveRx) was used to determine the kcat app and Km app values for ATP against the PKCι KD-1P and PKCι KD-2P. The assay uses a coupled reaction to convert ADP to a product that has a fluorescence excitation at 530 nm and emission at 590 nm. […]
peptide ([…]) related to the Nishikawa and co-workers consensus were also used in the study (Nishikawa et al., 1997). […] The reactions were measured every two minutes for 30 minutes in a 384-well plate using a Safire 2 plate reader (Tecan). The kinetic constants were determined by fitting the data to Michaelis–Menten equation using the graphics program Prism (GraphPad Prism, version 5.0d, GraphPad Software). […]

Test [2] has as its target T1, PKCιKD-2P (primed human PKC-iota kinase domain). Briefly: In vitro kinase assay (ADP Quest), peptide as substrate, Michaelis-Menten kinetics. The format is biochemical. As to conditions: in vitro kinase assay. The procedure: The ADP Quest kit (DiscoveRx) was used to determine the kcat app and KM app values for ATP against the PKCιKD-1P and PKCιKD-2P using a series of synthetic peptide substrates as described by [Kjaer et al. (2013)]. The reactions were measured every 2 min for 30 min in a 384-well plate using a Safire^2 plate reader (Tecan). The kinetic constants were determined by fitting the data to the Michaelis-Menten equation. Data are represented as mean ± SEM. Fluorescence anisotropy assays were performed to determine the KD for each peptide labeled with a fluorescein tag following standard protocols using a Safire^2 plate reader (Tecan). The anisotropy values were normalized and the KD was determined using non-linear regression. All experiments were performed in triplicate and for at least three independent protein preparations.
The ADP Quest kit (DiscoveRx) was used to determine the kcat app and Km app values for ATP against the PKCι KD-1P and PKCι KD-2P. The assay uses a coupled reaction to convert ADP to a product that has a fluorescence excitation at 530 nm and emission at 590 nm. Several synthetic peptide substrates were used including a model peptide […]
([…]) derived from a PKCε pseudo-substrate sequence with an alanine-serine change. We found this peptide to be an efficient substrate peptide for aPKC isozymes. Peptides from human Par3CR3 (residues 816-835) and F-X-R short […]
peptide ([…]) related to the Nishikawa and co-workers consensus were also used in the study (Nishikawa et al., 1997). For the kcat app and Km app reactions, the ATP concentration ranged from 0-200 µM, while the synthetic peptide substrates were kept constant at 200 µM to avoid product inhibition. The reactions were measured every two minutes for 30 minutes in a 384-well plate using a Safire 2 plate reader (Tecan). The kinetic constants were determined by fitting the data to Michaelis–Menten equation using the graphics program Prism (GraphPad Prism, version 5.0d, GraphPad Software). […]

Test [3] concerns the target PKCι kinase domain, 248-596 (UniProt P41743). Briefly: fluorescence anisotropy, fluorescein-labelled peptide. As to conditions: reference: unphosphorylated Par3CR3 peptide; sites S827. In general terms: Fluorescence polarisation rises when a labelled molecule tumbles more slowly, as on binding a larger partner.
The target in test [4] is T2, human PKC-iota kinase domain, primed active form (PKCιKD-2P) (human, UniProt P41743 248-596, phosphothreonine at 412 and 564 (pT412, pT564)).
T2 sequence (looked up): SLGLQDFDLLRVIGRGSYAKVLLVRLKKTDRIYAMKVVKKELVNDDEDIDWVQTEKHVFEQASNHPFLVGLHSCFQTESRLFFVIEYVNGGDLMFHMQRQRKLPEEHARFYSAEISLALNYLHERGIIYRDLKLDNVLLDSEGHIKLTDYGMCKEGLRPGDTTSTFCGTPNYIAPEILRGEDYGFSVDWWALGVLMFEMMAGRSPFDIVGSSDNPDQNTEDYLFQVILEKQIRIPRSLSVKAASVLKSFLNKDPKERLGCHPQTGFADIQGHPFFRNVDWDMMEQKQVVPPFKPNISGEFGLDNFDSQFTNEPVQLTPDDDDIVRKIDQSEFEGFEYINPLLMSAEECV
Kind of test: cell-based or functional assay.

Test [5] concerns the target T3, human PKC-iota kinase domain, primed active form (PKCιKD-2P) (human, UniProt P41743 248-596, phosphothreonine at 412 and 564 (pT412, pT564)).
T3 chain: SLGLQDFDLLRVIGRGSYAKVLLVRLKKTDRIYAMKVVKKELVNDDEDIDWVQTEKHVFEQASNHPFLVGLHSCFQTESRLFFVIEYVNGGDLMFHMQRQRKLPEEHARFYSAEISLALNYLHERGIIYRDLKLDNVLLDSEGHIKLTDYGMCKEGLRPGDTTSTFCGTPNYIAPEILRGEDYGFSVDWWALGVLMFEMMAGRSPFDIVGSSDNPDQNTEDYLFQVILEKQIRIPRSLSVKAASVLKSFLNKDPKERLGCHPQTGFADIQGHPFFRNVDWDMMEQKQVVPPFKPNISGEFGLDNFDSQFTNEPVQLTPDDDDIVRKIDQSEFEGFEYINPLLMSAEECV
Briefly: FP.

Test [6] concerns the target T2, human PKC-iota kinase domain, primed …. Kind of test: fluorescence polarisation; fluorescence anisotropy of fluorescein-labelled peptide with PKCι kinase domain; Safire2 plate reader; anisotropy normalised, KD by non-linear regression; triplicate, at least three independent protein preparations. As to conditions: both partners purified.
Test [7] addresses T4, human PKC-iota kinase domain, partially primed low-activity form (PKCιKD-1P) (human, UniProt P41743 248-596, partially primed: one of the two priming sites pT412 and pT564 phosphorylated).
T4 chain: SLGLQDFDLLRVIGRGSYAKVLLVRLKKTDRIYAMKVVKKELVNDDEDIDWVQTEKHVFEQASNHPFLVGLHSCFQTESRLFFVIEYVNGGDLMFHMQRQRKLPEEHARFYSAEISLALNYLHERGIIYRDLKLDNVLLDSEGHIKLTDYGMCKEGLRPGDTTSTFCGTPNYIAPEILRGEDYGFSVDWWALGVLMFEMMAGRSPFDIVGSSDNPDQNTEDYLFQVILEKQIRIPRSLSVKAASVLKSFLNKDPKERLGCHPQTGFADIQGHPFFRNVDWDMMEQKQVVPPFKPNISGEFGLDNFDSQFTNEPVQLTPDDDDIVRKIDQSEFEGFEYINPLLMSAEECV
Kind of test: FP.

The target in test [8] is T3, human PKC-iota kinase domain, primed …. Briefly: FP.

Residues, ends and D or L forms follow the SMILES beside them. No end group written: not given here.

With `CSCC[C@H](NC(=O)[C@H](CO)NC(=O)[C@H](CCC(N)=O)NC(=O)[C@H](CCCNC(=N)N)NC(=O)CNC(=O)[C@H](Cc1ccccc1)NC(=O)CNC(=O)[C@H](CCC(=O)O)NC(=O)[C@H](CCCNC(=N)N)NC(=O)[C@H](CCC(N)=O)NC(=O)[C@H](Cc1ccccc1)NC(=O)[C@H](C)NC(=O)[C@@H](N)CC(C)C)C(=O)N[C@@H](CO)C(=O)N[C@@H](CCC(=O)O)C(=O)N[C@@H](CCCCN)C(=O)N[C@@H](CCCNC(=N)N)C(=O)N[C@H](C(=O)N[C@@H](CCCCN)C(=O)O)[C@@H](C)O` [Par3CR3] (H-LAFQREGFGRQSMSEKRTK-OH; N-terminus and C-terminus assumed), the “inhibition of activated Par complex (in words)” value in the test with Par6-PKCι-Cdc42 complex was “potently inhibited”.
In the case of “FKRQGSVRRR [F-X-Rshort peptide, artificial PKCι substrate resembling the aPKC consensus motif of Nishikawa et al]”, the “inhibition of PKCι catalytic activity in vitro (in words)” value in [1] is reported as “does not inhibit”. The “phosphorylation as substrate by PKCι in vitro (in words)” value in test [2] is listed as “efficient PKCι substrate”.
For the molecule “Kibra-derived peptide: Kibra-derived peptide (residues 919–978) with F-X-R motif anchor and K-R inhibitory motif (LRGSTIIRSKTFSPGPQSQYVCRLNRSDSDSSTLSKKPPFVRNSLERRSVRMKRPSSVKS)”, the “inhibition of PKCι catalytic activity in vitro (in words)” value in test [1] was “potently inhibit”.
In the case of “Par3 CR3, 816-834 (from UniProt Q8TEW0) phospho-S827 Par3CR3 peptide”, in [3], the fold change entry is reported as “weaker”.
For orientation: Kd means the concentration at which binding is half-saturated. A higher Kd goes with a looser complex. Consider LAFQREGFGRQSMSEAATK (also: fluorescein label (position not given here)) [Par3CR3 A-A-T mutant peptide (K-R-T to A-A-T, site 3 inhibitory arm)], for which, in test [4], the “fold increase of the apparent kcat of Par3CR3 phosphorylation by PKCιKD-2P, in vitro kinase assay” value was found to be 18 fold. The Kd in test [5] stood at 424000 nM.

B1: human Par3 conserved region 3 peptide, residues 816-834 (Par3CR3) (peptide, UniProt Q8TEW0 816-834, looked up)
peptide: LAFQREGFGRQSMSEKRTK
modifications: also: fluorescein label (position not given here)
notes: also called wild-type Par3CR3; source: synthetic peptide
Regarding B1, the Kd is 470 nM in test [6], 53600 nM in [7], 410 nM in test [8] and 730 nM in test [5]. Also, in [4], the “apparent IC50 of the block of phosphorylation of a model substrate peptide by PKCιKD-2P, in vitro kinase assay” value came to 450 nM.
With LAFQREGFGRQAMSEKRTK (peptide, UniProt Q8TEW0 816-834, looked up, also: fluorescein label (position not given here), source: synthetic peptide) [Par3CR3 S827A mutant peptide], the Kd in [6] was 970 nM; in test [5] it was 690 nM.
